“And” between values parts separate entries of the source, which are not always exact repeats. Equal values may be shown once. Blank lines part the entries; values can stand above or below the molecule they belong to.
Tests used:
Kir2.4 = molecular target: T1, Kir2.4 (Homo sapiens, UniProt Q9UNX9); assay: Whole-cell patch-clamp of Kir2.4 in HEK293 cells with SUMO1 or SENP1 in the recording pipette; assay type: cell-based; set-up: expressed in transfected cells
T1 sequence (Q9UNX9 1-436): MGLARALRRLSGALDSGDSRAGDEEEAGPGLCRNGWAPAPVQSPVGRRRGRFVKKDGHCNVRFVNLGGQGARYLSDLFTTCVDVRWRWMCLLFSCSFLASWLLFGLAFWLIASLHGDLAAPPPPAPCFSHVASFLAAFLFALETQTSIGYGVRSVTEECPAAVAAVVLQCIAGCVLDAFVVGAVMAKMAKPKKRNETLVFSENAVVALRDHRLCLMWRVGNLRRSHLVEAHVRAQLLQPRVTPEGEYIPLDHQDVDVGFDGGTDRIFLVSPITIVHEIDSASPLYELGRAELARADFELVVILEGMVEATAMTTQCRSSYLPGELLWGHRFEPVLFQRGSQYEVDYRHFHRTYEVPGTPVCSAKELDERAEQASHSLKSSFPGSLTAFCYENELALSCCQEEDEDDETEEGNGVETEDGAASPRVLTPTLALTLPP
Protocol: Currents were measured at −80 mV in 140 mM external K+.
Similarly, currents were no longer enhanced by SENP1.
SUMOylation regulates Kir2.4 channels in mammalian cells. Next, we tested if SUMO could regulate Kir2.4 channels in mammalian cells. Kir2.4 channels were transiently expressed in HEK293 cells and studied in whole-cell mode with 140 mM bath [K]^+, using a ramp protocol from −80 to +80 mV. Purified SUMO1 or SENP1 peptide were introduced via the recording pipette. At 1 nM, SUMO1, but not heat-denatured SUMO1, inhibited Kir2.4 currents by ˜40 and 60%, respectively, within one-minute of breakthrough. In contrast, 1 nM SENP1 increased the current by ˜50% (FIG. 7).
The PIP2-dependence of SUMO-regulation. Using the 5-ptaseOCRL system, we depleted PIP2 in HEK293 cells expressing Kir2.4 and studied currents with 1 nM SUMO1, or SENP1 in the recording pipette. When currents were recorded after 5-min activation of the optogenetic probe, 5-ptaseOCRL, the inhibitory effect of 1 nM SUMO1 on Kir2.4 was reduced from ˜40% to ˜7% (FIG. 9). Current augmentation observed with SENP1 in the pipette was reduced from […] to ˜6%. These preliminary data support the conclusion that SUMO-regulation of Kir2.4 channels is PIP2-dependent.

Kir2.3 = molecular target: T2, Kir2.3 (Homo sapiens, UniProt P48050); assay: Two-electrode voltage-clamp of Kir2.3 currents in Xenopus oocytes; assay type: cell-based; details: co-expression
T2 construct: expressed in transfected cells; host or cells: Xenopus oocytes
T2 sequence (P48050 1-445): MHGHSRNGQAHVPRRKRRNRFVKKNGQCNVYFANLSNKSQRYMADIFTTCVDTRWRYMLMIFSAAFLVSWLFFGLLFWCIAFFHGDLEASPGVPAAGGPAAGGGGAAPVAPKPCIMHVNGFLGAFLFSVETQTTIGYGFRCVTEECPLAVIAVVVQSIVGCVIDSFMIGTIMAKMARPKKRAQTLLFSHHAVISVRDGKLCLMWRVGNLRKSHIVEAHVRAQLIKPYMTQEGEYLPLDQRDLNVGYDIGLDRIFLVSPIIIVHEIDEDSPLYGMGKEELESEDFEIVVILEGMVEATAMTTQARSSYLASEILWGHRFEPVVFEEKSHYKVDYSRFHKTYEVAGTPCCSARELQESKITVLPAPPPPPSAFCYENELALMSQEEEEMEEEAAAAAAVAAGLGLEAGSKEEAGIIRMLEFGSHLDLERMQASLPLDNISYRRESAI
Source text: FIG. 5A discloses SEQ ID NOS 6-9, respectively, in order of appearance. […] SENP1 increases the current. […] SUMO sensitivity is transferred to Kir2.3 when the site in Kir2.1 is recreated by mutagenesis (Kir2.3-N25D).
Co-expressed SUMO decreases Kir2.4 currents in Xenopus oocytes. Using the SUMOplot algorithm to assess potential SUMOylation sites based on the canonical motif ψ-K-X-E/D, we identified the high probability SUMO site V-K54-K-D (SEQ ID NO: 4) in the N-terminal sequence of Kir2.4. SUMO covalently modifies Kir2.4 at K54 (FIG. 5) and tested the idea using two-electrode voltage-clamp (TEVC), a sensitive assay to study the regulation of Kir channels. Kir2.4 currents, assessed at −80 mV in a high K^+ (96 mM) bath solution, decreased in a dose-dependent manner with co-expression of SUMO1 (FIG. 5). Co-injection of 5 ng of human SUMO1 RNA decreased Kir2.4 currents by ˜50%. In contrast, expression of SENP1 increased Kir2.4 by ˜50%. […] The analogous sequence in Kir2.2 and Kir2.3 is V-K-K-N(SEQ ID NO: 5), which lacks the terminal aspartic acid, reduced the probability of SUMOylation from 0.93 to 0.31. Consistent with this, Kir2.3 currents were insensitive to SUMO1 and SENP1. […] This last result is consistent with a protein-protein interaction between the channel and SUMO1.

inhibition of Kir2.4 currents after PIP2 depletion (Kir2.4; 1 nM SUMO1, after 5-min activation of 5-ptaseOCRL): ~7%
inhibition of Kir2.4 currents (Kir2.4; 1 nM in pipette, 140 mM bath K+, within one-minute of breakthrough): ~40% and ~60%
sensitivity of Kir2.3 currents (Kir2.3): insensitive
Molecule: SUMO1: purified SUMO1 (small ubiquitin-related modifier) protein introduced via the recording pipette or co-expressed

increase of Kir2.4 current (Kir2.4; 1 nM SENP1 in pipette): ~50% and ~40%
Kir2.4 current augmentation after PIP2 depletion (Kir2.4; 1 nM SENP1 in pipette, after 5-min activation of 5-ptaseOCRL): ~6%
sensitivity of Kir2.3 currents (Kir2.3): insensitive
B1: SENP1: purified deSUMOylating enzyme (SUMO specific protease) introduced via the recording pipette or expressed (protein, UniProt Q9P0U3 1-644, looked up)
Sentrin-specific protease 1: MDDIADRMRMDAGEVTLVNHNSVFKTHLLPQTGFPEDQLSLSDQQILSSRQGHLDRSFTCSTRSAAYNPSYYSDNPSSDSFLGSGDLRTFGQSANGQWRNSTPSSSSSLQKSRNSRSLYLETRKTSSGLSNSFAGKSNHHCHVSAYEKSFPIKPVPSPSWSGSCRRSLLSPKKTQRRHVSTAEETVQEEEREIYRQLLQMVTGKQFTIAKPTTHFPLHLSRCLSSSKNTLKDSLFKNGNSCASQIIGSDTSSSGSASILTNQEQLSHSVYSLSSYTPDVAFGSKDSGTLHHPHHHHSVPHQPDNLAASNTQSEGSDSVILLKVKDSQTPTPSSTFFQAELWIKELTSVYDSRARERLRQIEEQKALALQLQNQRLQEREHSVHDSVELHLRVPLEKEIPVTVVQETQKKGHKLTDSEDEFPEITEEMEKEIKNVFRNGNQDEVLSEAFRLTITRKDIQTLNHLNWLNDEIINFYMNMLMERSKEKGLPSVHAFNTFFFTKLKTAGYQAVKRWTKKVDVFSVDILLVPIHLGVHWCLAVVDFRKKNITYYDSMGGINNEACRILLQYLKQESIDKKRKEFDTNGWQLFSKKSQEIPQQMNGSDCGMFACKYADCITKDRPINFTQQHMPYFRKRMVWEILHRKLL

Reference: US20240358731A1, “SUMO PATHWAY AS AN OXYGEN SENSOR RELEVANT TO THE PATHOPHYSIOLOGY OF PULMONARY ARTERY HYPERTENSION AND CARDIAC ARRHYTHMIA” (Northeastern University, priority 2023, published 2024)
